Data from US20260209368A1 (PROMETHEUS BIOSCIENCES, published 2026).

T1: recombinant cynomolgus monkey TL1A protein (cynomolgus monkey, UniProt G7PRK8 72-251)
T1 sequence: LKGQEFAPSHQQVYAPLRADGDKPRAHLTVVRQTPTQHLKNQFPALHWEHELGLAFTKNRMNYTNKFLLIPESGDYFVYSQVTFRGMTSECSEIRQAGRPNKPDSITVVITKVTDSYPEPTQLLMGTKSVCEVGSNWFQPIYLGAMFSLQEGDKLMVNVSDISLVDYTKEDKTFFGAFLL

T2: recombinant human TL1A protein (human, UniProt O95150 72-251)
T2 sequence (looked up): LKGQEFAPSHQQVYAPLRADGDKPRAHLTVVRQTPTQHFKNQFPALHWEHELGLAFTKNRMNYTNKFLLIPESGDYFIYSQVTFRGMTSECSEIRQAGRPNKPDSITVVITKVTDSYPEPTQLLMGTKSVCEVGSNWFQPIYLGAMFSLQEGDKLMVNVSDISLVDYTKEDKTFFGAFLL

T3: TL1A in human blood (human, UniProt O95150 72-251, limits assumed)
T3 sequence (looked up): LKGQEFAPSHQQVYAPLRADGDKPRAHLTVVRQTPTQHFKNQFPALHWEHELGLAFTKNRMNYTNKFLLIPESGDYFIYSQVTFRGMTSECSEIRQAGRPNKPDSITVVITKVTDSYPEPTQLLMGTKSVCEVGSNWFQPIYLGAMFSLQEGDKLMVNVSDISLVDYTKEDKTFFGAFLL

B1: anti-TL1A antibody A219 (antibody, V domains shown)
VH: QVQLVQSGAEVKKPGASVKVSCKASGFDIQDTYMHWVKQRPGQGLEWMGRIDPASGHTKYDPKFQVRVTITRDTSTSTVYLELSSLRSEDTAVYYCARSGGLPDVWGQGTTVTVSS
VL: EIVLTQSPGTLSLSPGERATLSCRASSSVSYMYWYQQKPGQAPRPLIYATSNLASGIPDRFSGSGSGTDFTLTISRLEPEDFAVYYCQQWEGNPRTFGGGTKLEIK
notes: Humanized monoclonal IgG1 with a kappa light chain, designed to abolish effector functions
B2: A212 (antibody, V domains shown)
VH: QVQLVQSGAEVKKPGASVKVSCKASGFDIQDTYMHWVRQRPGQGLEWIGRIDPASGHTKYDPKFQVRATITTDTSTSTAYLELSSLRSEDTAVYYCARSGGLPDVWGQGTTVTVSS
VL: EIVLTQSPGTLSLSPGERATLSCRASSSVSYMYWYQQKPGQAPRPLIYATSNLASGIPDRFSGSGSGTDFTLTISRLEPEDFAVYYCQQWEGNPRTFGGGTKLEIK
B3: A213 (antibody, V domains shown)
VH: QVQLVQSGAEVKKPGASVKVSCKASGFDIQDTYMHWVRQRPGQGLEWMGRIDPASGHTKYDPKFQVRVTITTDTSTSTVYMELSSLRSEDTAVYYCARSGGLPDVWGQGTTVTVSS
VL: EIVLTQSPGTLSLSPGERATLSCRASSSVSYMYWYQQKPGQAPRPLIYATSNLASGIPDRFSGSGSGTDFTLTISRLEPEDFAVYYCQQWEGNPRTFGGGTKLEIK
B4: A217 (antibody, V domains shown)
VH: QVQLVQSGAEVKKPGASVKVSCKASGFDIQDTYMHWVKQRPGQGLEWMGRIDPASGHTKYDPKFQVRVTITRDTSTSTVYMELSSLRSEDTAVYYCARSGGLPDVWGQGTTVTVSS
VL: EIVLTQSPGTLSLSPGERATLSCRASSSVSYMYWYQQKPGQAPRPLIYATSNLASGIPDRFSGSGSGTDFTLTISRLEPEDFAVYYCQQWEGNPRTFGGGTKLEIK
B5: A219 (antibody, V domains shown)
VH: QVQLVQSGAEVKKPGASVKVSCKASGFDIQDTYMHWVKQRPGQGLEWMGRIDPASGHTKYDPKFQVRVTITRDTSTSTVYLELSSLRSEDTAVYYCARSGGLPDVWGQGTTVTVSS
VL: EIVLTQSPGTLSLSPGERATLSCRASSSVSYMYWYQQKPGQAPRPLIYATSNLASGIPDRFSGSGSGTDFTLTISRLEPEDFAVYYCQQWEGNPRTFGGGTKLEIK
B6: A220 (antibody, V domains shown)
VH: QVQLVQSGAEVKKPGASVKVSCKASGFDIQDTYMHWVKQRPGQGLEWMGRIDPASGHTKYDPKFQVRVTMTRDTSTSTAYLELSSLRSEDTAVYYCARSGGLPDVWGQGTTVTVSS
VL: EIVLTQSPGTLSLSPGERATLSCRASSSVSYMYWYQQKPGQAPRPWIYATSNLASGIPDRFSGSGSGTDFTLTISRLEPEDFAVYYCQQWEGNPRTFGGGTKLEIK
B7: A147 (antibody, V domains shown)
VH: QVQLVQSGAEVKKPGASVKVSCKASGFDIQDTYMHWVKQRPGQGLEWMGRIEPASGHIKYDPKFQGRVTMTRDTSTSTVYMELSSLRSEDTAVYYCARSGGLPDWWGQGTTVTVSS
VL: EIVLTQSPGTLSLSPGERATLSCRASSSVSYMYWYQQKPGQAPRPLIYATSNLASGIPDRFSGSGSGTDFTLTISRLEPEDFAVYYCQQWEGNPRTFGGGTKLEIK

Key:
[1] = target: T1, recombinant cynomolgus monkey TL1A …; experiment: cell-based or functional assay
[2] = target: T2, recombinant human TL1A protein; experiment: cell-based or functional assay
[3] = target: T1, recombinant cynomolgus monkey TL1A …; experiment: ELISA on recombinant TL1A protein, antibody titrated, A450 nm read
Protocol: ELISA for each protein was performed at least three times. The data from a representative experiment are shown and are mean±SD. Abbreviations: A=absorbance, Ab=antibody, Cyno=cynomolgus, nm-nanometer, nM-nanomolar. […] Samples were assayed in triplicate, on two separate occasions. Data presented are the mean TL1A concentrations of three animals per group+SD. Samples collected from animals administered isotype control antibody are shown in circles, samples collected from animals administered anti-TL1A are shown in the triangles and square.

TL1A in human blood = target: T3, TL1A in human blood; experiment: cell-based or functional assay

| Binder | IC50 of inhibition of TL1A-induced caspase activation in TF-1 cells [1] [nM] | IC50 of inhibition of the IFN-γ response in monkey whole blood stimulated with immune complex, IL-12 and IL-18 [1] [nM] | IC50 of inhibition of TL1A-induced caspase activation in TF-1 cells [2] [nM] | EC50 (read off the curve) [3] [nM] | % Inhibition at 1 nM Ig; inhibition of interferon gamma release in human blood (TL1A in human blood) [%] | % Inhibition at 10 nM Ig; inhibition of interferon gamma release in human blood (TL1A in human blood) [%] |
| --- | --- | --- | --- | --- | --- | --- |
| B1 | 0.59 | 1.54 | 0.27 | ~0.4 |  |  |
| B2 |  |  |  |  | 46.8 | 71.2 |
| B3 |  |  |  |  | 48.6 | 69.8 |
| B4 |  |  |  |  | 46 | 72.2 |
| B5 |  |  |  |  | 59.8 | 75.2 |
| B6 |  |  |  |  | 36.9 | 63.2 |
| B7 |  |  |  |  | 51.3 | 72.4 |
